Measurements from article PMC5792643.

Assays:
[1] = biological target: G-actin (monomeric actin from chicken muscle) (chicken) (UniProt P68139); assay: ITC
[2] = biological target: G-actin (monomeric actin) (chicken) (UniProt P68139); assay: ITC

Substance	stoichiometry N [1]	Kd [2]	stoichiometry N [2]
Tarp_(726–825) (translocated actin recruiting phosphoprotein, G-actin binding region) (domain or fragment)	1		
Tarp_(726–825) (translocated actin recruiting phosphoprotein, residues 726–825, containing the G-actin binding domain) (from UniProt Q6GX35 726-825) (domain or fragment)		102 nM	1
